Measured values taken from PMC3750173, “Ferredoxin Competes with Bacterial Frataxin in Binding to the Desulfurase IscS*^([image sbox.jpg])” (The Journal of Biological Chemistry, 2013).

Columns and labels:
[1] = target: holo-Fdx (cluster-loaded E. coli ferredoxin) (E. coli) (UniProt P0A9R4); test: SAXS; solutions of 2.5-5.0 mg/ml at 10 °C; IscS alone and holo-Fdx·IscS complex
[2] = target: holo-Fdx (cluster-loaded E. coli ferredoxin) (E. coli) (UniProt P0A9R4); test: BLI; biotinylated holo-Fdx on streptavidin biosensors, IscS 0-60 μM; 20 mM HEPES pH 7.5, 150 mM NaCl, 2 mM TCEP, 0.5 mg/ml BSA, 25 °C; Kd from the amplitude at equilibrium
IscS_R112E/R116E = target: T1, IscS_R112E/R116E (E. coli, UniProt P0A6B7 1-404, R112E | R116E); test: NMR titration; 15N-SOFAST HMQC of [15N]- or [15N/2H]Fdx or Fdx mutants titrated with unlabelled IscS or IscS mutants; 20 mM Tris, 150 mM NaCl, 20 mM TCEP, pH 8, 298 K; details: both partners purified
T1 construct: cysteine desulfurase IscS, E. coli; site-directed mutant of pET-11 IscS; designed after the first round of docking

IscS_I314E/M315E = target: T2, IscS_I314E/M315E (E. coli, UniProt P0A6B7 1-404, I314E | M315E); test: as above; details: both partners purified
T2 construct: cysteine desulfurase IscS, E. coli; site-directed mutant of pET-11 IscS

IscS_D346K/E347K = target: T3, IscS_D346K/E347K (E. coli, UniProt P0A6B7 1-404, D346K | E347K); test: as above; details: both partners purified
T3 construct: cysteine desulfurase IscS, E. coli; site-directed mutant of pET-11 IscS

[3] = target: T4, IscS (E. coli desulfurase), wild type (E. coli, UniProt P0A6B7 1-404); test: as above; details: both partners purified
T4 construct: cysteine desulfurase IscS, E. coli; construct pET-11 IscS (EMBL-Hamburg); Dimer by SAXS; also called desulfurase IscS

[4] = target: T4, IscS (E. coli desulfurase), wild type; test: NMR titration; competition: holo-Fdx·IscS sample (with IscU added before) titrated with CyaY up to 3 molar excess over holo-Fdx; 20 mM Tris, 150 mM NaCl, 20 mM TCEP, pH 8, 298 K; details: both partners purified

With “IscS (E. coli desulfurase), wild type (from UniProt P0A6B7 1-404) (enzyme)” the percent of free components [1] was 10%, the percent of the complex (OLIGOMER fit) [1] was 80% and the stoichiometry N (IscS:Fdx (2:2)) [1] was 1. The Kd [2] was 1500 nM.

B1: holo-Fdx (cluster-loaded E. coli ferredoxin) (natural protein)
chain: MPKIVILPHQDLCPDGAVLEANSGETILDAALRNGIEIEHACEKSCACTTCHCIVREGFDSLPESSEQEDDMLDKAWGLEPESRLSCQARVTDEDLVVEIPRYTINHAREH
modifications: [2Fe-2S] cluster bound (holo); biotinylated for BLI (site not stated); 15N or 15N/2H labelled for NMR
notes: ferredoxin (Fdx) of the isc operon, E. coli; fdx amplified from E. coli genomic DNA into a modified pET-24 vector; The same construct was used 15N- or 15N/2H-labelled in NMR and biotinylated on streptavidin biosensors in BLI; residues left after TEV cleavage and the NcoI site are not described; also called [15N]holo-Fdx; [15N/2H]holo-Fdx; source: E. coli, purified (nickel-nitrilotriacetic …)
B1: binds (IscS_R112E/R116E); binds (IscS_I314E/M315E); binds (IscS_D346K/E347K).

B2: holo-Fdx_E57K/D60K (natural protein, E. coli)
chain: MPKIVILPHQDLCPDGAVLEANSGETILDAALRNGIEIEHACEKSCACTTCHCIVRKGFKSLPESSEQEDDMLDKAWGLEPESRLSCQARVTDEDLVVEIPRYTINHAREH
modifications: [2Fe-2S] cluster bound (holo); 15N labelled
notes: ferredoxin (Fdx) of the isc operon, E. coli; mutant of the pET-24 construct; source: E. coli, purified (nickel-nitrilotriacetic acid-agarose, TEV cleavage, Superdex G75, MonoQ); not shown: GST, N-terminal, cleaved; His tag, N-terminal, cleaved
B2: binds [3].

B3: holo-Fdx_D11K (natural protein, E. coli)
chain: MPKIVILPHQKLCPDGAVLEANSGETILDAALRNGIEIEHACEKSCACTTCHCIVREGFDSLPESSEQEDDMLDKAWGLEPESRLSCQARVTDEDLVVEIPRYTINHAREH
modifications: [2Fe-2S] cluster bound (holo); 15N labelled
notes: as for B2
B3: binds [3].

B4: CyaY (bacterial ortholog of frataxin) (natural protein, E. coli, UniProt P27838 1-106, looked up)
chain: MNDSEFHRLADQLWLTIEERLDDWDGDSDIDCEINGGVLTITFENGSKIIINRQEPLHQVWLATKQGGYHFDLKGDEWICDRSGETFWDLLEQAATQQAGETVSFR
notes: CyaY, the bacterial ortholog of frataxin, E. coli; also called bacterial frataxin
B4: binds [4].
